The supplement of paper PMC10724198
± gives the standard deviation of the averaged measurements.

Legend:
[1] = system: Saccharomyces cerevisiae; test: protein stability index of tFT-peptide fusion (C-terminal peptide) (PSI (0-1 scale)); higher = more stable (slower turnover); details: genetic background: wild type; temperature: 30 C
[2] = system: Saccharomyces cerevisiae; test: as above
Protocol: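 MPS profiling in S. cerevisiae of the tFT-X12 degron library: putative degron peptides plus stable controls, 12 aa, fused to the C-terminus of a sfGFP-mCherry timer. Cells are FACS-sorted into 8 mCherry/sfGFP bins and deep-sequenced. PSI runs from 0 (unstable) to 1 (stable). Backgrounds are wild type, das1Δ and doa10Δ at 30 °C, and wild type, das1Δ, cdc34-1 and cdc53-1 at 37 °C; 2-3 technical replicates each.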

[3] = genetic background: cdc34-1, temperature: 37 C
[4] = genetic background: cdc53-1, temperature: 37 C
[5] = genetic background: das1 deletion, temperature: 30 C
[6] = genetic background: das1 deletion, temperature: 37 C
[7] = genetic background: doa10 deletion, temperature: 30 C
[8] = genetic background: wild type, temperature: 30 C
[9] = genetic background: wild type, temperature: 37 C
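Further: PSI is a weighted mean of sequencing reads over stability bins, variants kept only with over 10 reads, mCherry proximal and sfGFP distal, peptide attached via GGGS linker.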

Row | Sequence | protein stability index [1] | protein stability index [2, 3] | protein stability index [2, 4] | protein stability index [2, 5] | protein stability index [2, 6] | protein stability index [2, 7] | protein stability index [2, 8] | protein stability index [2, 9]
1 | VLAFFPLFFFLS | 0.2054 ± 0.002 | 0.434 ± 0.035 | 0.5049 ± 0.0042 | 0.439 ± 0.033 | 0.5732 ± 0.0029 | 0.144 ± 0.013 | 0.126 ± 0.015 | 0.245 ± 0.0039
2 | VLGARWHWIYIA | 0.111 ± 0.024 | 0.281 ± 0.071 | 0.526 ± 0.0082 | 0.501 ± 0.014 | 0.6636 ± 0.0012 | 0.0782 ± 0.011 | 0.078 ± 0.023 | 0.06742 ± 0.00037
3 | VLGLYSLLLSFF | 0.337 ± 0.007 | 0.567 ± 0.068 | 0.6627 ± 0.0015 | 0.524 ± 0.034 | 0.644 ± 0.016 | 0.277 ± 0.013 | 0.305 ± 0.0096 | 0.4532 ± 0.0012
4 | VLGRCWWIVSDL | 0.566 ± 0.19 | 0.736 ± 0.037 | 0.782 ± 0.011 | 0.661 ± 0.016 | 0.763 ± 0.015 | 0.659 ± 0.025 | 0.67 ± 0.024 | 0.755 ± 0.0049
5 | VLISLVLLFRCW | 0.408 ± 0.041 | 0.23 ± 0.015 | 0.244 ± 0.038 | 0.262 ± 0.023 | 0.386 ± 0.016 | 0.307 ± 0.028 | 0.248 ± 0.03 | 0.332 ± 0.017
6 | VLLMFFFRFSAL | 0.523 ± 0.049 | 0.589 ± 0.053 | 0.717 ± 0.014 | 0.545 ± 0.033 | 0.685 ± 0.02 | 0.483 ± 0.011 | 0.491 ± 0.022 | 0.624 ± 0.013
7 | VLVFYFCFSFCS | 0.205 ± 0.049 | 0.144 ± 0.013 | 0.282 ± 0.043 | 0.126 ± 0.025 | 0.297 ± 0.0048 | 0.11 ± 0.015 | 0.129 ± 0.029 | 0.273 ± 0.016
8 | VLVLSFLYRMVK | 0.376 ± 0.033 | 0.353 ± 0.065 | 0.4364 ± 0.0007 | 0.312 ± 0.054 | 0.507 ± 0.013 | 0.271 ± 0.013 | 0.304 ± 0.017 | 0.436 ± 0.032
9 | VLVSYAIVILYL | 0.193 ± 0.002 | 0.128 ± 0.0017 | 0.141 ± 0.03 | 0.136 ± 0.043 | 0.293 ± 0.029 | 0.12 ± 0.008 | 0.149 ± 0.019 | 0.268 ± 0.026
10 | VLVVLVVCRRAE | 0.324 ± 0.032 | 0.247 ± 0.039 | 0.412 ± 0.0043 | 0.226 ± 0.028 | 0.438 ± 0.0089 | 0.18 ± 0.041 | 0.226 ± 0.029 | 0.422 ± 0.0083
11 | VLYLQCITSAGH | 0.246 ± 0.023 | 0.1691 ± 0.00061 | 0.203 ± 0.0061 | 0.273 ± 0.025 | 0.195 ± 0.021 | 0.31 ± 0.044 | 0.29 ± 0.037 | 0.178 ± 0.0088
12 | VMRMVWVLGVMC | 0.299 ± 0.011 | 0.281 ± 0.02 | 0.325 ± 0.047 | 0.251 ± 0.037 | 0.405 ± 0.0087 | 0.178 ± 0.0075 | 0.203 ± 0.028 | 0.35 ± 0.0091
13 | VPSMSIVWCRVL | 0.213 ± 0.048 | 0.383 ± 0.036 | 0.446 ± 0.0055 | 0.417 ± 0.02 | 0.511 ± 0.01 | 0.168 ± 0.01 | 0.123 ± 0.018 | 0.12 ± 0.005
14 | VPSPWVFSLFLH | 0.242 ± 0.033 | 0.594 ± 0.059 | 0.689 ± 0.0095 | 0.604 ± 0.025 | 0.73 ± 0.012 | 0.14 ± 0.0025 | 0.139 ± 0.0022 | 0.283 ± 0.016
15 | VQFISLVCLFRF | 0.414 ± 0.013 | 0.339 ± 0.048 | 0.361 ± 0.0089 | 0.341 ± 0.045 | 0.475 ± 0.036 | 0.346 ± 0.033 | 0.303 ± 0.018 | 0.448 ± 0.039
16 | VQWPLLVVGCMG | 0.399 ± 0.028 | 0.271 ± 0.016 | 0.312 ± 0.04 | 0.263 ± 0.029 | 0.401 ± 0.0053 | 0.211 ± 0.015 | 0.251 ± 0.036 | 0.361 ± 0.011
17 | VSFRISAIFVCV | 0.343 ± 0.044 | 0.232 ± 0.034 | 0.293 ± 0.02 | 0.216 ± 0.033 | 0.367 ± 0.0039 | 0.183 ± 0.011 | 0.202 ± 0.028 | 0.322 ± 0.045
18 | VSPATFLFYFFF | 0.497 ± 0.017 | 0.62 ± 0.022 | 0.688 ± 0.011 | 0.544 ± 0.02 | 0.655 ± 0.0092 | 0.37374 ± 0.00014 | 0.396 ± 0.013 | 0.5607 ± 0.00097
19 | VTFCFLFVWFLV | 0.283 ± 0.048 | 0.269 ± 0.004 | 0.378 ± 0.018 | 0.27 ± 0.028 | 0.413 ± 0.0092 | 0.23 ± 0.015 | 0.226 ± 0.012 | 0.345 ± 0.013
20 | VTGFGVAIVCVT | 0.369 ± 0.084 | 0.263 ± 0.021 | 0.292 ± 0.0042 | 0.254 ± 0.044 | 0.3722 ± 0.0024 | 0.191 ± 0.0072 | 0.241 ± 0.033 | 0.364 ± 0.015

Row | Sequence | protein stability index [1] | protein stability index [2, 3] | protein stability index [2, 4] | protein stability index [2, 5] | protein stability index [2, 6] | protein stability index [2, 7] | protein stability index [2, 8] | protein stability index [2, 9]
21 | VVFFFKFFLLRL | 0.363 ± 0.026 | 0.262 ± 0.0047 | 0.224 ± 0.025 | 0.318 ± 0.031 | 0.407 ± 0.033 | 0.362 ± 0.018 | 0.246 ± 0.035 | 0.325 ± 0.019
22 | VVGLVSIVQVIM | 0.397 ± 0.041 | 0.43875 ± 0.0003 | 0.488 ± 0.024 | 0.308 ± 0.023 | 0.51 ± 0.027 | 0.279 ± 0.011 | 0.31 ± 0.024 | 0.493 ± 0.014
23 | VVGRWGFVVECW | 0.3595 ± 0.00014 | 0.268 ± 0.014 | 0.301 ± 0.024 | 0.254 ± 0.037 | 0.394 ± 0.0095 | 0.227 ± 0.011 | 0.249 ± 0.025 | 0.366 ± 0.0046
24 | VVGVVVCWGRGW | 0.496 ± 0.046 | 0.603 ± 0.015 | 0.666 ± 0.029 | 0.463 ± 0.024 | 0.653 ± 0.0096 | 0.448 ± 0.019 | 0.469 ± 0.015 | 0.6212 ± 0.0058
25 | VVISRVLAIRLL | 0.237 ± 0.0063 | 0.5452 ± 0.00094 | 0.6095 ± 0.0003 | 0.5 ± 0.027 | 0.6173 ± 0.002 | 0.1324 ± 0.0013 | 0.137 ± 0.028 | 0.228 ± 0.042
26 | VVIWWFSAVVSV | 0.148 ± 0.036 | 0.0446 ± 0.0021 | 0.138 ± 0.026 | 0.0727 ± 0.021 | 0.2 ± 0.013 | 0.0495 ± 0.014 | 0.0622 ± 0.026 | 0.165 ± 0.0031
27 | VVPVGLYSVILV | 0.4269 ± 0.0008 | 0.427 ± 0.012 | 0.447 ± 0.028 | 0.322 ± 0.03 | 0.4839 ± 0.0039 | 0.289 ± 0.0065 | 0.306 ± 0.021 | 0.451 ± 0.02
28 | VVSGLNYCLVLS | 0.3917 ± 0.0038 | 0.48 ± 0.033 | 0.48 ± 0.029 | 0.29 ± 0.042 | 0.523 ± 0.006 | 0.276 ± 0.013 | 0.28 ± 0.039 | 0.4829 ± 0.0021
29 | VVVCSLVPLFVL | 0.34 ± 0.018 | 0.3086 ± 0.0026 | 0.32 ± 0.035 | 0.272 ± 0.03 | 0.41 ± 0.017 | 0.205 ± 0.012 | 0.235 ± 0.029 | 0.318 ± 0.0076
30 | VVVVWVVVEIVR | 0.169 ± 0.036 | 0.147 ± 0.033 | 0.275 ± 0.11 | 0.164 ± 0.022 | 0.279 ± 0.033 | 0.121 ± 0.018 | 0.133 ± 0.024 | 0.178 ± 0.012
31 | VVWVYSMLFSIW | 0.276 ± 0.0055 | 0.19 ± 0.02 | 0.3594 ± 0.00053 | 0.231 ± 0.034 | 0.403 ± 0.015 | 0.202 ± 0.013 | 0.221 ± 0.021 | 0.415 ± 0.068
32 | VWFFLLSFANRL | 0.476 ± 0.015 | 0.4767 ± 0.0035 | 0.5386 ± 0.004 | 0.465 ± 0.043 | 0.517 ± 0.0083 | 0.466 ± 0.029 | 0.45 ± 0.0099 | 0.4845 ± 0.00053
33 | VWFGGFVCSVLG | 0.393 ± 0.039 | 0.366 ± 0.019 | 0.361 ± 0.012 | 0.314 ± 0.028 | 0.4478 ± 0.0026 | 0.244 ± 0.0056 | 0.297 ± 0.026 | 0.415 ± 0.018
34 | VWFGGLAVCCGG | 0.396 ± 0.042 | 0.398 ± 0.024 | 0.405 ± 0.037 | 0.303 ± 0.025 | 0.4815 ± 0.0022 | 0.2709 ± 0.0023 | 0.303 ± 0.03 | 0.43156 ± 0.00042
35 | VWYSCWSFLVLF | 0.291 ± 0.024 | 0.444 ± 0.026 | 0.548 ± 0.011 | 0.416 ± 0.034 | 0.55122 ± 0.00022 | 0.2 ± 0.011 | 0.207 ± 0.024 | 0.362 ± 0.035
36 | VYRRKLDRLLCI | 0.332 ± 0.1 | 0.561 ± 0.029 | 0.615 ± 0.025 | 0.512 ± 0.021 | 0.652 ± 0.0088 | 0.171 ± 0.012 | 0.182 ± 0.035 | 0.275 ± 0.005
37 | WAAVGIQLRLLF | 0.3323 ± 0.00057 | 0.354 ± 0.011 | 0.34 ± 0.015 | 0.317 ± 0.034 | 0.47357 ± 9.6e-05 | 0.233 ± 0.026 | 0.199 ± 0.018 | 0.347 ± 0.022
38 | WALVLLVPVWFD | 0.471 ± 0.027 | 0.442 ± 0.031 | 0.553 ± 0.06 | 0.383 ± 0.032 | 0.567 ± 0.011 | 0.396 ± 0.055 | 0.402 ± 0.014 | 0.533 ± 0.0073
39 | WCAGCLGWWLQS | 0.415 ± 0.028 | 0.683 ± 0.059 | 0.8029 ± 0.003 | 0.694 ± 0.015 | 0.791 ± 0.014 | 0.246 ± 0.01 | 0.316 ± 0.038 | 0.548 ± 0.012
